In the experiment the target is Aar-MBP fusion protein (E. coli (EAEC 042)). Put plainly: SPR.

B1: AggR-MBP fusion protein (natural protein)
chain: MKLKQNIEKEIIKINNIRIHQYTVLYTSNCTIDVYTKEGSNTYLRNELIFLERGINISVRLQKKKSTVNPFIAIRLSSDTLRRLKDALMIIYGISKVDACSCPNWSKGIIVADADDSVLDTFKSIDHNDDSRITSDLIYLISKIENNRKIIESIYISAVSFFSDKVRNTIEKDLSKRWTLAIIADEFNVSEITIRKRLESEYITFNQILMQSRMSKAALLLLDNSYQISQISNMIGFSSTSYFIRLFVKHFGITPKQFLTYFKSQ
B1: the equilibrium dissociation constant (Kd) was in the range of 20 to 40 nM.
